In paper PMC8354592:

Molecular target: GST-GNL1 (UniProt P36915 1-607)
Experiment: EMSA

Chain of GST-GNL1 (P36915 whole entry): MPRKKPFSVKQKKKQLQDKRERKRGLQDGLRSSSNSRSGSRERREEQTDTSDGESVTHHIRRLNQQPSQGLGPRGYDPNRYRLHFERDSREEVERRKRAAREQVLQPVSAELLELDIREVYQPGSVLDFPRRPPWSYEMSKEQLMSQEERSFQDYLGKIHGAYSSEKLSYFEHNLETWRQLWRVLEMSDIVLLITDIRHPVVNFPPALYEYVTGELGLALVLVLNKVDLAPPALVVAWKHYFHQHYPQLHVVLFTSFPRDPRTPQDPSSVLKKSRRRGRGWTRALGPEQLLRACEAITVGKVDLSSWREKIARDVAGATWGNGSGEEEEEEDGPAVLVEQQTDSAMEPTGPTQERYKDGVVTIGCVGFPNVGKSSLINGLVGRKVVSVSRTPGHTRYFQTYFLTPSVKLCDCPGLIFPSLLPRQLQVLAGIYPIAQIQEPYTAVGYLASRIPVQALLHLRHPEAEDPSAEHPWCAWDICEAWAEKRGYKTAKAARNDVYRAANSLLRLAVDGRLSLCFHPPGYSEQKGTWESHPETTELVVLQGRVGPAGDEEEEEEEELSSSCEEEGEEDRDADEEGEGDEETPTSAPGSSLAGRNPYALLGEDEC

B1: PRKN G/A mutant (ssRNA)
RNA: GGAUUCCUAGGGCCGAGCGCGAGAGCGAGAAGGCCUGAAGGAUUUAACCCAGAAGAGCCGCUGGUGAGAGGCGCGGCUGGCGCCGCUGCGCGC
Kd: 7.34 µM
